Broadly, the stoichiometry N is a count of units in the complex or per binding partner.

The target in experiment [1] is TaqCad1 R408D/A411E variant (Thermoanaerobaculum aquaticum). In words: SEC.
The target in experiment [2] is TaqCad1 (CARF-fused adenosine deaminase Cad1 from Thermoanaerobaculum aquaticum), wild type (Thermoanaerobaculum aquaticum). The experiment is described as follows: cryo-EM structure.

In experiment [1], TaqCad1 R408D/A411E variant (enzyme) gave a stoichiometry N of 2.
Take “TaqCad1 (CARF-fused adenosine deaminase Cad1 from Thermoanaerobaculum aquaticum), wild type (enzyme)”: the stoichiometry N in experiment [2] was 6.
